# Results taken from the nanobody polyreactivity screen of Harvey et al. (2022).
# Assay: yeast display, Sf9 membrane polyspecificity reagent, FACS + sequencing; frameworks hold sequencing errors
# How it was run: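 A synthetic nanobody library was expressed on Saccharomyces cerevisiae BJ5465 by galactose induction for 36–48 hours. The library was stained for 1 hour at 4 °C with 10% biotinylated, detergent-solubilized Sf9 membrane reagent and enriched with streptavidin microbeads before FACS. Low and high (top ~1%) gates were set on anti-HA fluorescence for expression and streptavidin fluorescence for reagent binding, and each polyreactivity label reflects the gate of origin.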
row,Sequence,polyreactivity (PSR sort gate)
1,QVQLVESGGGLVQAGGSLRLSSAASGSTFTLYAMGWYRQAPGKERELVATITGSGGSTNYADSVKGRFTISRDNAKNTVYLQMNSLKPEDTAVYYCAADYAVYSFTEFNYWGQGTQVTVSS,high polyreactivity
2,QVQLVESGGGLVQAGGSLRLSSAASGSTFVQNAMGWYRQAPGKERELVAAISRGGTSTYYADSVKGRFTISRDNAKNTVYLQMNSLKPEDTAVYYCAAYTSYLGYPYDYWGQGTQVTVSS,high polyreactivity
3,QVQLVESGGGLVQAGGSLRLSSAASGSTFWYYAMGWYRQAPGTERELVAGITQSGGSTYYADSVKGRFTISRDNAKNTVYLQMNSLKPEDTAVYYCAKDGRVSGDFDYWGQGTQVTVSS,low polyreactivity
4,QVQLVESGGGLVQAGGSLRLSSAASGSTIRVYAMGWYRQAPGKERELVATISWGGGRTYYADSVKGRFTISLDNAKNTVYLQMNSLKQEDTSVYYCAADQRWTTDQPTAGDYWGQGTQVTVSS,low polyreactivity
5,QVQLVESGGGLVQAGGSLRLSSAASGSTYFTYAMGWYRQAPGKERELVAAISWSGGTTYYADSVKGRFTISRDNAKNTVYLQMNSLKPEDTAVYYCASARDGILKANDYWGQGTQVTVSS,low polyreactivity
6,QVQLVESGGGLVQAGGSLRLSSAASGYTFSRNAMGWYRQAPGKERELVASISSRGGSTRYADSVKGRFTISRDNAKYTVYLQMNSLKPEDTAVYYCAVRGLYSPFTYGYWGQGTQVTVSS,high polyreactivity
7,QVQLVESGGGLVQAGGSLRLSSAASTYLRLLMLWDGIDRRLGQIGSWLPLLTLVVNSTYYADSVKGRFTISRDNAKNTVYFQMNSLKPEDTAVYYCNVDPYGTYARTHLEYWGQGTQVTVSS,low polyreactivity
8,QVQLVESGGGLVQAGGSLRLSSADSGRIFNRYAMGSYRQAPGKERELVAAITGSGGRTYYADSVKGRFTISRDNAKNTVYLQMNSLKPEDTAVYYCAATSLIYGYRTYDYWGQGTQVTVSS,high polyreactivity
9,QVQLVESGGGLVQAGGSLRLSSADSGRIFSYYAMGGYRQAPGKEREFVATITYGGGSTYYADSVKGRFTISRDNAKNTVYLQMNSLKPEDTAVYYCAARGYSYRGWRMDYWGQGSQVTVSS,high polyreactivity
10,QVQLVESGGGLVQAGGSLRLSSAGSGSTLAYNAMGWYRQAPGKERELVAAISRGTSTYYADSVKGRFTISRDNAKNTVYLQMNSLKPEDTEVYYCAADYVIQYREYDSWGQGTQVTVSS,low polyreactivity
11,QVQLVESGGGLVQAGGSLRLSSAPSGRTFLSNAMGWYRQAPGKERELVAAITWETDSTYYADSVKGLFTISRDNAKNTVYLQMNSLKPEDTAVYYCAARRYRPFTDYDGRTWWTRDYWGQGTQVTVSS,low polyreactivity
12,QVQLVESGGGLVQAGGSLRLSSAPSGSIFWGYAMGWYRQAPGKERELVATIRNRGGSTYYADSVKGRFTISRDNAKNTVYFQMNSRKPDDTAVYYCAAVSYRQYYGWGNYWGQGSQVTVSS,low polyreactivity
13,QVQLVESGGGLVQAGGSLRLSSASSGFTFNSYAMGWYRQAPGKERELVAAIDTGDDITYYADSVKGRFTISRDNAKNTVYLQMNSLKPVDTAVYYCAAKSRRQYTVGLSSDYWGQGTQVTVSS,high polyreactivity
14,QVQLVESGGGLVQAGGSLRLSSASSGRTLVPYAMGWYRQAPGKERELVAAISSGGYTNYADSVKGRFTISRDNAKNTVYLQMNSLKPEDTAVYYCAADYPVRSYDYWGQGTQVTVSS,low polyreactivity
15,QVQLVESGGGLVQAGGSLRLSSASSRSTFLLNAMGWYRQEPGKERELVAAITWTGGSTYYADSVKGLFTISRDNANNNVYLQMNSLNQEDTAVYYCAAETYVTSYYYWGQGTQVTVSS,low polyreactivity
16,QVQLVESGGGLVQAGGSLRLSSDASGNTFVYNAMGWYRQAPGKERKLVAGITKTGGRTYYADSVKGRFTISRDNAKNTVYLQMNSLKPDDTAVYYCAARPWNDGYYVGRFHMDYWGQGTQVTLSS,low polyreactivity
17,QVQLVESGGGLVQAGGSLRLSSDDSGFTFVSNAMGWYRQAPGKEMELVAVISSGGSTTYADSVKGRFTISRDNAKNTVYLQMNSLKPEDTAVYYCATTNYQDSYEGGDYWGQGTQVTVSS,low polyreactivity
